Assay results published in patent US20060177829A1 (NEW YORK UNIVERSITY, published 2006).
One block for each binder: values may come before it.

How the values were obtained:
[1] = target: T1, Flag-tagged β-TrCP1 (Fbw1a) (human, UniProt Q9Y297 1-605); assay: anti-Flag immunoprecipitation from transfected HeLa cells, blot for Cdc25A
T1 construct: F-box protein expressed from a Flag-tagged construct in HeLa cells and pulled down with anti-Flag resin; also called beta-TrCP1; Flag-beta-TrCP1; not shown: Flag tag
T1 sequence: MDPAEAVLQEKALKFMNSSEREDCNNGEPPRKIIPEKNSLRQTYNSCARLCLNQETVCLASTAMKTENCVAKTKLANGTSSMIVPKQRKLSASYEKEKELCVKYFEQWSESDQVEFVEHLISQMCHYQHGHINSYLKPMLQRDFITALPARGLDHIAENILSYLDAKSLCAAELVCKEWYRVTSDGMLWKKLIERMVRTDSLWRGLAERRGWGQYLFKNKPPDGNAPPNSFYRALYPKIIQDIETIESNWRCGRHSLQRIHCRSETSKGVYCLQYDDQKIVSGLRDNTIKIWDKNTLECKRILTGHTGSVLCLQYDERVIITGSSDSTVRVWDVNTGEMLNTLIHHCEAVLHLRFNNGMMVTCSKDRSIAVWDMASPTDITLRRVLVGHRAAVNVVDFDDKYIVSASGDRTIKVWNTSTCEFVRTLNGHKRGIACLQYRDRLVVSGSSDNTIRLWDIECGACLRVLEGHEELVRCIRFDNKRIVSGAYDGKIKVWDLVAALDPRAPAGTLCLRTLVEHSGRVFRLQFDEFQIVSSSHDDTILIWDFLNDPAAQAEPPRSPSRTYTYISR
From the text: (§1) FIG. 1. Cdc25A interacts with beta-TrCP1 and beta-TrCP2 in vivo (I). HeLa cells were transfected with the indicated Flag-tagged F-box protein constructs. F-box proteins were immunoprecipitated from extracts with an anti-Flag resin and immunocomplexes were blotted with Cul1, Cdc25A and Flag specific antibodies.

[2] = target: T2, Flag-tagged β-TrCP2 (Fbw1b) (human, UniProt Q9UKB1 1-542); assay: as above
T2 construct: F-box protein expressed from a Flag-tagged construct in HeLa cells; also called beta-TrCP2; not shown: Flag tag
T2 sequence: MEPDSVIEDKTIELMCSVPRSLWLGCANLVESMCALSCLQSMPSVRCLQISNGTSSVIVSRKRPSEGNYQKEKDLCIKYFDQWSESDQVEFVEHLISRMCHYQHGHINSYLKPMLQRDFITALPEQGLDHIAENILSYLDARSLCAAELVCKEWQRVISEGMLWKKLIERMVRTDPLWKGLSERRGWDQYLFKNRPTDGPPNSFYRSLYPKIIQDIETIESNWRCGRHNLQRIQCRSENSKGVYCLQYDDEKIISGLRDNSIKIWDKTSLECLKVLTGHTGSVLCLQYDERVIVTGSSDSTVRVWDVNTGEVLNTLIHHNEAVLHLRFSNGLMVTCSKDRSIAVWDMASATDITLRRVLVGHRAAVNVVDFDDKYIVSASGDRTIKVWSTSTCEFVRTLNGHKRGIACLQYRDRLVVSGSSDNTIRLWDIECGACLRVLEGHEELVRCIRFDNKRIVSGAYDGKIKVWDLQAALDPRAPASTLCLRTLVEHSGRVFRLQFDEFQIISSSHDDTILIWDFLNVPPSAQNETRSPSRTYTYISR
From the text: as §1

[3] = target: T1, Flag-tagged β-TrCP1 (Fbw1a); assay: anti-Flag immunoprecipitation from HeLa cells co-transfected with His-Cdc25A, blot for Cdc25A
[4] = target: T3, Flag-tagged Fbw7 (form not stated, FIG. 2) (human, UniProt Q969H0 1-707, limits assumed); assay: as above
T3 construct: The Fbw7 of the parallel experiment with overexpressed Cdc25A; not shown: Flag tag
T3 sequence (Q969H0 whole entry): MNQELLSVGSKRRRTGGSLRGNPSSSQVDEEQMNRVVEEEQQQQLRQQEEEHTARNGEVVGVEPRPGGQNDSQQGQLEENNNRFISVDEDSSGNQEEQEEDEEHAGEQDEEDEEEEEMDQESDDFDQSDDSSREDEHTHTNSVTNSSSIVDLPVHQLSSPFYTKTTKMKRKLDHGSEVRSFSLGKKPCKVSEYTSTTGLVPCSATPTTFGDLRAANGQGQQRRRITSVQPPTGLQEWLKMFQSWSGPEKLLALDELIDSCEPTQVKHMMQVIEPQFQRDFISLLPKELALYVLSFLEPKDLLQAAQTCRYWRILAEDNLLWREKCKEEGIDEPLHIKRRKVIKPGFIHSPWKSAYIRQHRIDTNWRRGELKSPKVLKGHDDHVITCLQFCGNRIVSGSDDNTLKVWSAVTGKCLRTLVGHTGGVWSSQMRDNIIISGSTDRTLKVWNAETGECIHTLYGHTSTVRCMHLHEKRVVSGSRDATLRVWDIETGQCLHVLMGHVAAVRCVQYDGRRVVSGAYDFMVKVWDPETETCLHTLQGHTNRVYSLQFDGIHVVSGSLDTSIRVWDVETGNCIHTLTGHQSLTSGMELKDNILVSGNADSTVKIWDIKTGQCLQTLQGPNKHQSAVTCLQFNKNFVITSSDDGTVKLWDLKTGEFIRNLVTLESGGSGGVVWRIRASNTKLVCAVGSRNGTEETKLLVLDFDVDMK

[5] = target: T2, Flag-tagged β-TrCP2 (Fbw1b); assay: as above
Flag-tagged Skp2 = target: T4, Flag-tagged Skp2 (human, UniProt Q13309 1-424, limits assumed); assay: as above
T4 construct: not shown: Flag tag
T4 sequence (Q13309 whole entry): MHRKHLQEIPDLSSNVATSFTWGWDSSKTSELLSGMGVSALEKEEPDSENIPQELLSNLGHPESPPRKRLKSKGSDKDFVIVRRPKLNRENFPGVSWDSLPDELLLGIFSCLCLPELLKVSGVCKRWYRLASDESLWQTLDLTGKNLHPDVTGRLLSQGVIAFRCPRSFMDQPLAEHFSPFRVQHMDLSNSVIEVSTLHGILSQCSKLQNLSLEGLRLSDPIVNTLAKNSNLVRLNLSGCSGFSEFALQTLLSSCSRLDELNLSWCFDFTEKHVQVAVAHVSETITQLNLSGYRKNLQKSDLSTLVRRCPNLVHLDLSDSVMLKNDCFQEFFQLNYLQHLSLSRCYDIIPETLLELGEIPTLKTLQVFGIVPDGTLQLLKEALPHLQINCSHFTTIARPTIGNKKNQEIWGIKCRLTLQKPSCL

[6] = target: T1, Flag-tagged β-TrCP1 (Fbw1a); assay: co-expression in HeLa cells, anti-Flag β-TrCP1 immunocomplexes blotted for Cdc25A
Cul1 (endogenous) = target: T5, Cul1 (endogenous) (human, UniProt Q13616 1-776); assay: Flag-tagged Cdc25A immunocomplexes blotted for Cul1
T5 construct: Human by the cell lines used; also called Cul1 subunit
T5 sequence (Q13616 whole entry): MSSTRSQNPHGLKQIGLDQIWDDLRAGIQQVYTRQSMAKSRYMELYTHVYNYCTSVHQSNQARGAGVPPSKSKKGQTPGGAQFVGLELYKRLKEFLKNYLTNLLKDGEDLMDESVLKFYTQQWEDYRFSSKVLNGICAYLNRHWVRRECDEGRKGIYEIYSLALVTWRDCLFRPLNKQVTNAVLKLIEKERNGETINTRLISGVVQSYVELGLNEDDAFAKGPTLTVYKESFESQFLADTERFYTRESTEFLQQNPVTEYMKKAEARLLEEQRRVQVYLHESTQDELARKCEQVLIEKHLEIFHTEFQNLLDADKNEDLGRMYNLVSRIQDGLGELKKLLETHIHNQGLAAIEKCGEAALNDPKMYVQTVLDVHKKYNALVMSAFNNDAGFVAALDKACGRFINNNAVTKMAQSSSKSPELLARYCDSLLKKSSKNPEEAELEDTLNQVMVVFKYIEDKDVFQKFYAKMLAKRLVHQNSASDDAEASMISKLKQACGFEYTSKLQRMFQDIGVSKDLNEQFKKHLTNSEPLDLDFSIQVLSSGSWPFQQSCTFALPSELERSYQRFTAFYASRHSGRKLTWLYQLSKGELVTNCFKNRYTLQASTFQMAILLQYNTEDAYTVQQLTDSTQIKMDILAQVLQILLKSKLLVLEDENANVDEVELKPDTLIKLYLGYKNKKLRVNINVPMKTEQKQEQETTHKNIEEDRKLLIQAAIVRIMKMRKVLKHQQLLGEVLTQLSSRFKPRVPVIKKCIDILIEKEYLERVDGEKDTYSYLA

Skp1 (endogenous) = target: T6, Skp1 (endogenous) (human, UniProt P63208 2-163); assay: Flag-tagged Cdc25A immunocomplexes blotted for Skp1
T6 construct: Human by the cell lines used
T6 sequence (P63208 2-163 limits assumed): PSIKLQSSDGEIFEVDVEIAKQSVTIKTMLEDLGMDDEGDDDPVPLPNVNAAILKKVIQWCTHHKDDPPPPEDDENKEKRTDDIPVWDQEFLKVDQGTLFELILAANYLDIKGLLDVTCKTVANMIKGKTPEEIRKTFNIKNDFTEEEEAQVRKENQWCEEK

β-TrCP1 (endogenous) = target: T7, β-TrCP1 (endogenous) (human, UniProt Q9Y297 1-605); assay: Flag-tagged Cdc25A immunocomplexes blotted for β-TrCP1
T7 construct: also called beta-TrCP
T7 sequence: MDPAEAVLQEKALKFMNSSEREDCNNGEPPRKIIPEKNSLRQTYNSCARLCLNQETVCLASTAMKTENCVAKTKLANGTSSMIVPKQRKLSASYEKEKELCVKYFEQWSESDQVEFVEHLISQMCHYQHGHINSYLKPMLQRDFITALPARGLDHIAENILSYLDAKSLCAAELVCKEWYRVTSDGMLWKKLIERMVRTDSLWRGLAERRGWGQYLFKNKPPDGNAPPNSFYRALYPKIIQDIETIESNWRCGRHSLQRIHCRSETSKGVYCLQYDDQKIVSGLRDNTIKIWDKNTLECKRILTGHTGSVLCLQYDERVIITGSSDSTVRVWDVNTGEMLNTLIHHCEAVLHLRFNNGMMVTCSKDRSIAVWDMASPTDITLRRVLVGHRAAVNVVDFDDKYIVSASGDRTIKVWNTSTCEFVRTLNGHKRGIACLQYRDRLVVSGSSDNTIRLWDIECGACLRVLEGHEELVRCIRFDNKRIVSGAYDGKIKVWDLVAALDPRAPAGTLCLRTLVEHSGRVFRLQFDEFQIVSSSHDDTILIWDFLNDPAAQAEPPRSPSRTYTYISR

B1: Cdc25A (endogenous, HeLa cells) (enzyme)
chain: MELGPSPAPRRLLFACSPPPASQPVVKALFGASAAGGLSPVTNLTVTMDQLQGLGSDYEQPLEVKNNSNLQRMGSSESTDSGFCLDSPGPLDSKENLENPMRRIHSLPQKLLGCSPALKRSHSDSLDHDIFQLIDPDENKENEAFEFKKPVRPVSRGCLHSHGLQEGKDLFTQRQNSAQLGMLSSNERDSSEPGNFIPLFTPQSPVTATLSDEDDGFVDLLDGENLKNEEETPSCMASLWTAPLVMRTTNLDNRCKLFDSPSLCSSSTRSVLKRPERSQEESPPGSTKRRKSMSGASPKESTNPEKAHETLHQSLSLASSPKGTIENILDNDPRDLIGDFSKGYLFHTVAGKHQDLKYISPEIMASVLNGKFANLIKEFVIIDCRYPYEYEGGHIKGAVNLHMEEEVEDFLLKKPIVPTDGKRVIVVFHCEFSSERGPRMCRYVRERDRLGNEYPKLHYPELYVLKGGYKEFFMKCQSYCEPPSYRPMHHEDFKEDLKKFRTKSRTWAGEKSKREMYSRLKKL
modifications: hyperphosphorylated in the form that co-precipitates with beta-TrCP (λ-phosphatase gave a faster migrating band); sites not mapped in that experiment
notes: also called cell division cycle 25A
binding result [1]: binds
binding result [2]: binds

B2: His-Cdc25A (overexpressed wild type) (enzyme)
chain: MELGPSPAPRRLLFACSPPPASQPVVKALFGASAAGGLSPVTNLTVTMDQLQGLGSDYEQPLEVKNNSNLQRMGSSESTDSGFCLDSPGPLDSKENLENPMRRIHSLPQKLLGCSPALKRSHSDSLDHDIFQLIDPDENKENEAFEFKKPVRPVSRGCLHSHGLQEGKDLFTQRQNSAQLGMLSSNERDSSEPGNFIPLFTPQSPVTATLSDEDDGFVDLLDGENLKNEEETPSCMASLWTAPLVMRTTNLDNRCKLFDSPSLCSSSTRSVLKRPERSQEESPPGSTKRRKSMSGASPKESTNPEKAHETLHQSLSLASSPKGTIENILDNDPRDLIGDFSKGYLFHTVAGKHQDLKYISPEIMASVLNGKFANLIKEFVIIDCRYPYEYEGGHIKGAVNLHMEEEVEDFLLKKPIVPTDGKRVIVVFHCEFSSERGPRMCRYVRERDRLGNEYPKLHYPELYVLKGGYKEFFMKCQSYCEPPSYRPMHHEDFKEDLKKFRTKSRTWAGEKSKREMYSRLKKL
notes: also called overexpressed Cdc25A; not shown: His tag
binding result [3]: binds
binding result [4]: no binding
binding result [5]: binds
binding result (Flag-tagged Skp2): no binding

B3: His-tagged Cdc25A DSG2x (enzyme)
chain: MELGPSPAPRRLLFACSPPPASQPVVKALFGASAAGGLSPVTNLTVTMDQLQGLGSDYEQPLEVKNNSNLQRMGSSESTDAGFCLDAPGPLDSKENLENPMRRIHSLPQKLLGCSPALKRSHSDSLDHDIFQLIDPDENKENEAFEFKKPVRPVSRGCLHSHGLQEGKDLFTQRQNSAQLGMLSSNERDSSEPGNFIPLFTPQSPVTATLSDEDDGFVDLLDGENLKNEEETPSCMASLWTAPLVMRTTNLDNRCKLFDSPSLCSSSTRSVLKRPERSQEESPPGSTKRRKSMSGASPKESTNPEKAHETLHQSLSLASSPKGTIENILDNDPRDLIGDFSKGYLFHTVAGKHQDLKYISPEIMASVLNGKFANLIKEFVIIDCRYPYEYEGGHIKGAVNLHMEEEVEDFLLKKPIVPTDGKRVIVVFHCEFSSERGPRMCRYVRERDRLGNEYPKLHYPELYVLKGGYKEFFMKCQSYCEPPSYRPMHHEDFKEDLKKFRTKSRTWAGEKSKREMYSRLKKL
notes: not shown: His tag
binding result [6]: no binding

Second part, the binder after the results:

binding result [6]: no binding
B4: His-tagged Cdc25A DSG3x (enzyme)
chain: MELGPSPAPRRLLFACSPPPASQPVVKALFGASAAGGLSPVTNLTVTMDQLQGLGSDYEQPLEVKNNSNLQRMGSSEATDAGFCLDAPGPLDSKENLENPMRRIHSLPQKLLGCSPALKRSHSDSLDHDIFQLIDPDENKENEAFEFKKPVRPVSRGCLHSHGLQEGKDLFTQRQNSAQLGMLSSNERDSSEPGNFIPLFTPQSPVTATLSDEDDGFVDLLDGENLKNEEETPSCMASLWTAPLVMRTTNLDNRCKLFDSPSLCSSSTRSVLKRPERSQEESPPGSTKRRKSMSGASPKESTNPEKAHETLHQSLSLASSPKGTIENILDNDPRDLIGDFSKGYLFHTVAGKHQDLKYISPEIMASVLNGKFANLIKEFVIIDCRYPYEYEGGHIKGAVNLHMEEEVEDFLLKKPIVPTDGKRVIVVFHCEFSSERGPRMCRYVRERDRLGNEYPKLHYPELYVLKGGYKEFFMKCQSYCEPPSYRPMHHEDFKEDLKKFRTKSRTWAGEKSKREMYSRLKKL
notes: not shown: His tag

binding result (Cul1 (endogenous)): no binding
binding result (Skp1 (endogenous)): no binding
binding result (β-TrCP1 (endogenous)): no binding
B5: Flag-tagged Cdc25A DSG2x (enzyme)
chain: MELGPSPAPRRLLFACSPPPASQPVVKALFGASAAGGLSPVTNLTVTMDQLQGLGSDYEQPLEVKNNSNLQRMGSSESTDAGFCLDAPGPLDSKENLENPMRRIHSLPQKLLGCSPALKRSHSDSLDHDIFQLIDPDENKENEAFEFKKPVRPVSRGCLHSHGLQEGKDLFTQRQNSAQLGMLSSNERDSSEPGNFIPLFTPQSPVTATLSDEDDGFVDLLDGENLKNEEETPSCMASLWTAPLVMRTTNLDNRCKLFDSPSLCSSSTRSVLKRPERSQEESPPGSTKRRKSMSGASPKESTNPEKAHETLHQSLSLASSPKGTIENILDNDPRDLIGDFSKGYLFHTVAGKHQDLKYISPEIMASVLNGKFANLIKEFVIIDCRYPYEYEGGHIKGAVNLHMEEEVEDFLLKKPIVPTDGKRVIVVFHCEFSSERGPRMCRYVRERDRLGNEYPKLHYPELYVLKGGYKEFFMKCQSYCEPPSYRPMHHEDFKEDLKKFRTKSRTWAGEKSKREMYSRLKKL
notes: Point mutant of the full-length pCDNA3.1-Flag-Cdc25A construct; also called DSG2x mutated protein; DSG2x protein; not shown: Flag tag from pCDNA3.1-Flag vector
